Experiments:
Fyn = Fyn (UniProt P06241); assay: phosphorylation enrichment, bacterial display (enrichment ratio); higher = better substrate or ligand; peptides without Tyr show the background
Hck = Hck (UniProt P08631); assay: as above
Fer (mouse) = assay: as above
AncSZ = assay: as above
c-Abl (mouse) = assay: as above
FGFR1 = FGFR1 (UniProt P11362); assay: as above
FGFR3 = FGFR3 (UniProt P22607); assay: as above
EPHB1 = EPHB1 (UniProt P54762); assay: as above
Fes = Fes (UniProt P07332); assay: as above
MERTK = MERTK (UniProt Q12866); assay: as above
MERTK, sequence (Q12866 whole entry, looked up): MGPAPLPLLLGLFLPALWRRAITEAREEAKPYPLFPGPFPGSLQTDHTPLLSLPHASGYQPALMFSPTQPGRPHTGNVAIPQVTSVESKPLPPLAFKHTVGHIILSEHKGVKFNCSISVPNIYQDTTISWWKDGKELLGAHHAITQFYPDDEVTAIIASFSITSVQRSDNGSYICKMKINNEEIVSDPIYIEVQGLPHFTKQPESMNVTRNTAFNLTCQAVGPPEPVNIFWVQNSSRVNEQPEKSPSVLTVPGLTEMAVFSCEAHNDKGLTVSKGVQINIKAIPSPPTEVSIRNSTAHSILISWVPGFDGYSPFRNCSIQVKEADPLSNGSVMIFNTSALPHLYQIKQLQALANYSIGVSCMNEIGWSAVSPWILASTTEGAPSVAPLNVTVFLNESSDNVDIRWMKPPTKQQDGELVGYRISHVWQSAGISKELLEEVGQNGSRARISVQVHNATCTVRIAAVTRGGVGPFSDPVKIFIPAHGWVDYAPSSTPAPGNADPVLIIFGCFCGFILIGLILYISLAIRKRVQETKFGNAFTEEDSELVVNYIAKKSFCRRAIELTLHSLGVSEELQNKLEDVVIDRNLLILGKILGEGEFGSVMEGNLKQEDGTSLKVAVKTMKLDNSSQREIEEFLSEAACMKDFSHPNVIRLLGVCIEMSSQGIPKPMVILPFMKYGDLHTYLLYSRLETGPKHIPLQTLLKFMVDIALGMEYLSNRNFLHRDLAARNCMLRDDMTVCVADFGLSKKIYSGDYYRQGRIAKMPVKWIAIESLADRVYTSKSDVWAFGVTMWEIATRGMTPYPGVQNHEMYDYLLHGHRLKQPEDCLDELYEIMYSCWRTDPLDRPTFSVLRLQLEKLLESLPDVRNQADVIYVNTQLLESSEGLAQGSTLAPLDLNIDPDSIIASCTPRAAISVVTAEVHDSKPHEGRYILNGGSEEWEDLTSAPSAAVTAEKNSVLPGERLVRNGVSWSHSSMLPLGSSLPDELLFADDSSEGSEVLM

EPHB2 = EPHB2 (UniProt P29323); assay: as above
EPHB2, sequence (P29323 whole entry, looked up): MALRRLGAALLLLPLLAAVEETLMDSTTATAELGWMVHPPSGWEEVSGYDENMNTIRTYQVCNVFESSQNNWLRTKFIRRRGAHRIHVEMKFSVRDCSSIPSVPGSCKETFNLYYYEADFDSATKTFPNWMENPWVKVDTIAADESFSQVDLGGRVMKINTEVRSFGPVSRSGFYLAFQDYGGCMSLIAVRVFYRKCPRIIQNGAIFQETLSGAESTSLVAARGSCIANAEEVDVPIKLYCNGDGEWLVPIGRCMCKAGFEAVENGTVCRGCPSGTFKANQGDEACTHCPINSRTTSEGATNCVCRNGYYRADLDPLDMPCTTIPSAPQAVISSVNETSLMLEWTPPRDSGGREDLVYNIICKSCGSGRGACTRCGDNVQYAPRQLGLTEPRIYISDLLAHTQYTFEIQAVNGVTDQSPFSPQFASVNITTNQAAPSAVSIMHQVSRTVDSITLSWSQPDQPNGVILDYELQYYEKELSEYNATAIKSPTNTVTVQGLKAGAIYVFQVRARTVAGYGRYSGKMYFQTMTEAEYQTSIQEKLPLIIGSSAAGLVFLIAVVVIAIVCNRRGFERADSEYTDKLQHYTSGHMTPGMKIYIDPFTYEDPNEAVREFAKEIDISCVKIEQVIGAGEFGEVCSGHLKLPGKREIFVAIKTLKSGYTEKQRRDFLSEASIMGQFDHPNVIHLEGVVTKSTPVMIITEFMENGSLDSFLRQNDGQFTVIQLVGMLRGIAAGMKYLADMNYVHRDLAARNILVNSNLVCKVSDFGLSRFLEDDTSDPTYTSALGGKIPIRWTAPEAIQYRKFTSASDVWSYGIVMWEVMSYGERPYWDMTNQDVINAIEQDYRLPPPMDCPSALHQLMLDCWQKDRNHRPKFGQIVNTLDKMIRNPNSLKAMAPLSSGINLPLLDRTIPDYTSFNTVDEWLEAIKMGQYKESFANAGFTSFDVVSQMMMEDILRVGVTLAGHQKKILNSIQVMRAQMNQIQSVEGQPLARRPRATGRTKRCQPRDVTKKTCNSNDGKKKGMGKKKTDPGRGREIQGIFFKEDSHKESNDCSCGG

c-Src = assay: as above
Jak2 = Jak2 (UniProt O60674); assay: as above
c-Src SH2 = assay: SH2 binding enrichment of the phosphorylated peptide, bacterial display (enrichment ratio); higher = better substrate or ligand; peptides without Tyr show the background
SHP2-C SH2 = assay: as above
Grb2 SH2 = Grb2 SH2 (UniProt P62993); assay: as above
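For SH2 binding enrichment of the phosphorylated peptide, bacterial display in this document: peptide library displayed on the E. coli surface as eCPX fusions, selected cells deep-sequenced, score is each peptide's frequency after selection divided by its frequency in the input.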
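For phosphorylation enrichment, bacterial display in this document: 11-residue human phosphosite peptides and single-mutation variants displayed on the E. coli surface, counted by deep sequencing, each peptide's frequency after selection divided by its frequency in the unselected input library; frequency after pTyr selection over input frequency; kinase dosed for 20-30% of maximal phosphorylation in three min.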

EPHB1, sequence (P54762 whole entry, looked up): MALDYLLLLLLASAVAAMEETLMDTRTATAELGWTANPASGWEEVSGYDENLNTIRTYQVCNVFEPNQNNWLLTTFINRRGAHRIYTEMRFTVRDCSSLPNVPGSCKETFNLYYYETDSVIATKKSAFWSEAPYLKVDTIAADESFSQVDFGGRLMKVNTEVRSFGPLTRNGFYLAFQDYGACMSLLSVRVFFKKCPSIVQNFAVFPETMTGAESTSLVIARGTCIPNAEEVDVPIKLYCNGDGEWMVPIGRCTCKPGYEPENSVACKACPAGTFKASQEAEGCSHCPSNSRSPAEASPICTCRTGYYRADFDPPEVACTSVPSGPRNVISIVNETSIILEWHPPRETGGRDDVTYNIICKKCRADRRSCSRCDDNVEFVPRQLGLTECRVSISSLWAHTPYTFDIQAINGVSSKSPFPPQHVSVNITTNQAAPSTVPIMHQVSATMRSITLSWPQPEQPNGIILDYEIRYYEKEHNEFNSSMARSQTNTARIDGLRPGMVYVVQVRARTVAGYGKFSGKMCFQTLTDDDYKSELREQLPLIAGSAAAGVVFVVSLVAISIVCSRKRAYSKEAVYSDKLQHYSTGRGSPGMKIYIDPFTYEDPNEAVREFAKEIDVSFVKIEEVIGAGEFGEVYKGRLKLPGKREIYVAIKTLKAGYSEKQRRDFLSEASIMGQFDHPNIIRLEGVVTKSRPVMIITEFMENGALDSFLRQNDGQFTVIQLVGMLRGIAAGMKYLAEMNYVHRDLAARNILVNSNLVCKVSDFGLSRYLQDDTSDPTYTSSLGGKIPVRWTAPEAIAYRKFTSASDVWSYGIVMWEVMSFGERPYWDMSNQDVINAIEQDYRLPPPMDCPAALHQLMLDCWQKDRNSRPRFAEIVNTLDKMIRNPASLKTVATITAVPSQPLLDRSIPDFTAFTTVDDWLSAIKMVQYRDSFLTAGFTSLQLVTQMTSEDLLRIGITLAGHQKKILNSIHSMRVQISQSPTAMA
FGFR1, sequence (P11362 whole entry, looked up): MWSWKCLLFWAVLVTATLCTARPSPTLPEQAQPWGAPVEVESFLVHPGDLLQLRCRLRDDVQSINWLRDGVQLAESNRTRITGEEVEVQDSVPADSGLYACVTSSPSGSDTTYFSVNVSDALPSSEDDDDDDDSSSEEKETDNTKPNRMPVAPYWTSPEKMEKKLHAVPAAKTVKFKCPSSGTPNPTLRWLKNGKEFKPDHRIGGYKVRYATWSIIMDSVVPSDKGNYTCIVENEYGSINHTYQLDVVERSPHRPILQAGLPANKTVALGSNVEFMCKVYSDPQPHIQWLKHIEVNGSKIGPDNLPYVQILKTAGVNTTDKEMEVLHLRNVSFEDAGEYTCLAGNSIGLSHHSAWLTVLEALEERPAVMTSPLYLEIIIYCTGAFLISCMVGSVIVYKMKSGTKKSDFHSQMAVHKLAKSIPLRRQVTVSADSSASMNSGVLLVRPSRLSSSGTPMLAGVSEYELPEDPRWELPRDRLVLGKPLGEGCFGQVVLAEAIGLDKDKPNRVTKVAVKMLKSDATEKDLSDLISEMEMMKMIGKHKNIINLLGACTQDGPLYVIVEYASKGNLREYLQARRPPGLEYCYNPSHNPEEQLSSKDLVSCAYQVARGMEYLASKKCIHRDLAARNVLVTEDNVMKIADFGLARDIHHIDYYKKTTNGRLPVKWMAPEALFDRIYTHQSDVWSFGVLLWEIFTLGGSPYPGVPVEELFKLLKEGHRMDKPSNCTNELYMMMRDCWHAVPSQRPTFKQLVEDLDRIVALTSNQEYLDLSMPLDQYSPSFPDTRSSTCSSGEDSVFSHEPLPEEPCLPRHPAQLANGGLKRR
Fyn, sequence (P06241 whole entry, looked up): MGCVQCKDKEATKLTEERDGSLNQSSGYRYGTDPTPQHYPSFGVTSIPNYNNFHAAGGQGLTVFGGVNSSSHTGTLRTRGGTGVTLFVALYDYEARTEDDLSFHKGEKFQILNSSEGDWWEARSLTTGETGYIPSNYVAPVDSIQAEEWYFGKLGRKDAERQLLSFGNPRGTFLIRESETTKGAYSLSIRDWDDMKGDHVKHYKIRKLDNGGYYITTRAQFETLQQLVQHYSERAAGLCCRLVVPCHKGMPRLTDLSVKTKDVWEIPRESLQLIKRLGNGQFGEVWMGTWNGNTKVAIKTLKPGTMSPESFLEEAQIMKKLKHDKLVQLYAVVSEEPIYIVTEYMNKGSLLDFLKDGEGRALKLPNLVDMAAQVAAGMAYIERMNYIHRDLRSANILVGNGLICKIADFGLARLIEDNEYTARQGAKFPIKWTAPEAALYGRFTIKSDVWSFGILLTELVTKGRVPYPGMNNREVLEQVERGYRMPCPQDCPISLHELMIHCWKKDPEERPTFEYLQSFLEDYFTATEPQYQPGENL
Hck, sequence (P08631 whole entry, looked up): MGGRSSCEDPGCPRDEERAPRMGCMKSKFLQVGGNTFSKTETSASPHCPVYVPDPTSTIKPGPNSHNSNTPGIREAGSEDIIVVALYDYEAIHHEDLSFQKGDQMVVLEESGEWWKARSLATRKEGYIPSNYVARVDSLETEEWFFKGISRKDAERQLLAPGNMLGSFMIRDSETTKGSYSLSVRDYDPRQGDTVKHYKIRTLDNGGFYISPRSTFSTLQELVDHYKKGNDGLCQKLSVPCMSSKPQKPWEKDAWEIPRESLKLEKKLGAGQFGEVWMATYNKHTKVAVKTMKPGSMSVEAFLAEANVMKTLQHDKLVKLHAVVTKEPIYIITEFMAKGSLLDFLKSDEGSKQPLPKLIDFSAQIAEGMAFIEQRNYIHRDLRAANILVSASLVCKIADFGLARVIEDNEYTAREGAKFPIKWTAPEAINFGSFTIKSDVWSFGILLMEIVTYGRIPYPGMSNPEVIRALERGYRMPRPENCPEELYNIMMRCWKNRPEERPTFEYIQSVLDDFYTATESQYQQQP

Sequence | SH2 binding enrichment (c-Src SH2) | SH2 binding enrichment (SHP2-C SH2) | SH2 binding enrichment (Grb2 SH2) | phosphorylation enrichment (Fyn) | phosphorylation enrichment (Hck) | phosphorylation enrichment (Fer (mouse)) | phosphorylation enrichment (AncSZ) | phosphorylation enrichment (c-Abl (mouse)) | phosphorylation enrichment (FGFR1) | phosphorylation enrichment (FGFR3) | phosphorylation enrichment (EPHB1) | phosphorylation enrichment (Fes) | phosphorylation enrichment (MERTK) | phosphorylation enrichment (EPHB2) | phosphorylation enrichment (c-Src) | phosphorylation enrichment (Jak2)
PTATSYTPNLA [GABRA1_Y375] | 0.729 | 0.604 | 0.699 | 0.643 | 0.477 | 0.571 | 0.568 | 0.505 | 0.459 | 0.607 | 0.291 | 0.521 | 0.357 | 0.314 | 0.306 | 0.349
PVQAAYEKVVA [HBB_Y131_Q132E] | 2.59 | 0.886 | 0.885 | 0.88 | 0.591 | 0.958 | 0.855 | 0.551 | 0.786 | 0.699 | 0.744 | 1.02 | 0.507 | 0.345 | 0.415 | 0.568
PVQAAYQKLVA [HBB_Y131_V134L] | 0.709 | 0.764 | 0.659 | 0.582 | 0.558 | 0.768 | 0.735 | 0.518 | 0.447 | 0.698 | 0.458 | 0.796 | 0.577 | 0.494 | 0.499 | 1.55
PVQAAYQKVVP [HBB_Y131_A136P] | 1 | 0.751 | 0.881 | 0.878 | 0.803 | 0.827 | 0.763 | 0.561 | 0.727 | 0.775 | 0.787 | 0.64 | 0.619 | 0.631 | 0.626 | 0.88
PYSNPYENSLI [EPOR_Y489] | 5.44 | 0.818 | 3.58 | 0.906 | 0.679 | 2.63 | 1.17 | 0.762 | 0.806 | 1.14 | 0.781 | 1.16 | 0.912 | 0.714 | 1.15 | 1.05
QAQMDYRRWQP [MPL_Y591_L594W] | 0.386 | 0.55 | 0.635 | 0.461 | 0.424 | 0.49 | 0.548 | 0.745 | 0.402 | 0.491 | 0.523 | 0.795 | 0.373 | 0.539 | 0.361 | 0.762
QEIATHRRLLE [KRT14_Y415_Y415H] | 0.543 | 0.722 | 0.978 | 0.576 | 0.508 | 0.711 | 0.692 | 0.695 | 0.529 | 1.09 | 0.403 | 1.06 | 0.69 | 0.469 | 0.43 | 0.575
QFLMKYVWSAP [ABCD1_Y337_S342P] | 0.595 | 0.653 | 0.941 | 0.562 | 0.674 | 0.836 | 1.68 | 0.749 | 0.634 | 1.03 | 0.834 | 1.63 | 0.61 | 0.738 | 0.429 | 1.34
QGGRHYMMIVD [GAA_Y438_R437H] | 8.36 | 1.57 | 1.09 | 0.65 | 0.779 | 0.605 | 1.01 | 0.475 | 1.01 | 0.981 | 0.639 | 0.778 | 0.969 | 0.573 | 0.444 | 0.863
QGLRLYRAHLA [BTK_Y617_P619A] | 1.21 | 1.61 | 1.38 | 0.576 | 0.497 | 0.467 | 1.43 | 0.854 | 0.521 | 0.677 | 0.587 | 0.978 | 0.582 | 0.602 | 0.523 | 0.878
QITQVYGFFDE [PPP2CA_Y127_YF] | 0.726 | 0.841 | 0.898 | 14.9 | 6.92 | 1.39 | 1.81 | 1.06 | 0.836 | 1.08 | 1.28 | 1.81 | 2.32 | 0.97 | 8.8 | 1.33

Second part, led by results:

SH2 binding enrichment (c-Src SH2) | SH2 binding enrichment (SHP2-C SH2) | SH2 binding enrichment (Grb2 SH2) | Sequence | phosphorylation enrichment (Fyn) | phosphorylation enrichment (Hck) | phosphorylation enrichment (Fer (mouse)) | phosphorylation enrichment (AncSZ) | phosphorylation enrichment (c-Abl (mouse)) | phosphorylation enrichment (FGFR1) | phosphorylation enrichment (FGFR3) | phosphorylation enrichment (EPHB1) | phosphorylation enrichment (Fes) | phosphorylation enrichment (MERTK) | phosphorylation enrichment (EPHB2) | phosphorylation enrichment (c-Src) | phosphorylation enrichment (Jak2)
0.705 | 1.11 | 1.2 | PSQRCYVFFFS [PTEN_Y174_R173C_YF] | 0.79 | 0.616 | 0.703 | 1.37 | 0.882 | 0.837 | 1.35 | 0.865 | 1.73 | 0.646 | 0.735 | 0.646 | 1.24
1.42 | 1.3 | 1.53 | PSQRPYVFFFS [PTEN_Y174_R173P_YF] | 0.605 | 0.439 | 0.693 | 1.27 | 1.25 | 2.12 | 1.14 | 0.726 | 1.51 | 0.755 | 0.559 | 0.973 | 1.21
0.787 | 0.369 | 1.62 | PTFENYANSTQ [SLC12A3_Y70_H69N_YF] | 0.437 | 0.766 | 0.52 | 0.853 | 0.531 | 0.615 | 0.539 | 0.542 | 1.08 | 0.572 | 0.711 | 0.391 | 0.895
3.76 | 1.54 | 0.724 | QDRTYYESVRT [SPEN_Y633] | 2.28 | 4.01 | 4.79 | 0.996 | 0.61 | 1.9 | 1.37 | 0.98 | 0.874 | 1.21 | 0.758 | 2.66 | 0.82
0.307 | 0.772 | 0.699 | QGIIIYRAAFF [SLC25A4_Y187_YF] | 0.342 | 0.422 | 0.581 | 1.21 | 1.04 | 0.327 | 0.634 | 0.605 | 1.69 | 0.61 | 0.338 | 0.542 | 1.17

— the supplement of paper PMC10065799, “High-throughput profiling of sequence recognition by tyrosine kinases and SH2 domains using bacterial peptide display” (eLife, 2023)
